Measured values published in publication PMC4005696, “Type III restriction endonucleases are heterotrimeric: comprising one helicase–nuclease subunit and a dimeric methyltransferase that binds only one specific DNA” (Nucleic Acids Research, 2014).

What was measured:
[1] = biological target: T1, EcoP15I Res subunit (commercial enzyme from New England Biolabs) (Escherichia coli, UniProt Q5ZND2 1-970); test: SEC-MALS; 0.5–1.0 mg/ml (1.25–2.5 µM) enzyme, Superdex 200, Standard Assay Buffer minus BSA (50 mM Tris–HCl pH 8.0, 50 mM KCl, 10 mM MgCl2, 1 mM DTT), room temperature; enzyme alone or with excess Hex-labelled specific 50-mer DNA, with or without 1 mM ATP; details: both partners purified
T1 construct: Res subunit of the Type III restriction endonuclease EcoP15I, Escherichia coli; also called EcoP15I NEB; commercially available EcoP15I; source: bought: NEB (catalogue no. R0646S)
T1 sequence (looked up): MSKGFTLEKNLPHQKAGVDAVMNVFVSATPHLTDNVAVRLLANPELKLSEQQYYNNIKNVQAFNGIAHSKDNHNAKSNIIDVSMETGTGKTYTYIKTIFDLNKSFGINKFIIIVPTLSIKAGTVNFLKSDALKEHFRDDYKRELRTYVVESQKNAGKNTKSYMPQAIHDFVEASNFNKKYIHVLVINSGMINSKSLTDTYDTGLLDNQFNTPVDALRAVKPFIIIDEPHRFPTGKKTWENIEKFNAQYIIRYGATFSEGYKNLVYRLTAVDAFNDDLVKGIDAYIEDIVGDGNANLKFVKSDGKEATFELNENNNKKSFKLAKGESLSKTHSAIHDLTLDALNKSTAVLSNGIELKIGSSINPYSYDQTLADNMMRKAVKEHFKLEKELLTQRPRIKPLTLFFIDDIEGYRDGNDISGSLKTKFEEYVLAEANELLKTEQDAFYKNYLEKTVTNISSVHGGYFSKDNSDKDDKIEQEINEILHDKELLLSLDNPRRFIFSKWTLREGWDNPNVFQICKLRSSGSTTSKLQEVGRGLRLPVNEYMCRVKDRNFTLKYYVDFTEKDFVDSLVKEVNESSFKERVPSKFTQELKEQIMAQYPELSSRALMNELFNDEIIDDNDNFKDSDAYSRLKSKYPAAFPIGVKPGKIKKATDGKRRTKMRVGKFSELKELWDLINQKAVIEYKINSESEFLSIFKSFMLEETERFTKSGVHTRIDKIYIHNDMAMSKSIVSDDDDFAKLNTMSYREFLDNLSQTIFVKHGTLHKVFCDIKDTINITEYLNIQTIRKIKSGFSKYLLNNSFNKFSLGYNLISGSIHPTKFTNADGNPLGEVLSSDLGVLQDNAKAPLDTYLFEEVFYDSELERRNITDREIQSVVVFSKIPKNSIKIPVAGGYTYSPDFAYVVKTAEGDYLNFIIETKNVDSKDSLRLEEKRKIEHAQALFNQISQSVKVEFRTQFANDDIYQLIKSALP

[2] = biological target: T2, EcoPI holoenzyme (Res1Mod2) (Escherichia coli, UniProt P08764;P08763 1-970;1-646); test: native MS; no ATP; 1:1 complex 288.1 kDa; SEC-MALS: 50 mM Tris-HCl pH 8.0, 50 mM KCl, 10 mM MgCl2, 1 mM DTT, 0.1 mg/ml BSA (Standard Assay Buffer), 20 C; native MS: volatile ammonium acetate buffer, enzyme:DNA 1:2; details: protein: recombinant; tags: none; copies: 1;2
[3] = biological target: T2, EcoPI holoenzyme (Res1Mod2); test: SEC-MALS; 10 mM Mg2+, no ATP; 1:1 Res1Mod2:DNA; SEC-MALS: 50 mM Tris-HCl pH 8.0, 50 mM KCl, 10 mM MgCl2, 1 mM DTT, 0.1 mg/ml BSA (Standard Assay Buffer), 20 C; native MS: volatile ammonium acetate buffer, enzyme:DNA 1:2; details: protein: recombinant; tags: none; copies: 1;2; label: 5'-Hex (12C linker) on top strand

T2 sequence (P08764 whole entry, one chain of several): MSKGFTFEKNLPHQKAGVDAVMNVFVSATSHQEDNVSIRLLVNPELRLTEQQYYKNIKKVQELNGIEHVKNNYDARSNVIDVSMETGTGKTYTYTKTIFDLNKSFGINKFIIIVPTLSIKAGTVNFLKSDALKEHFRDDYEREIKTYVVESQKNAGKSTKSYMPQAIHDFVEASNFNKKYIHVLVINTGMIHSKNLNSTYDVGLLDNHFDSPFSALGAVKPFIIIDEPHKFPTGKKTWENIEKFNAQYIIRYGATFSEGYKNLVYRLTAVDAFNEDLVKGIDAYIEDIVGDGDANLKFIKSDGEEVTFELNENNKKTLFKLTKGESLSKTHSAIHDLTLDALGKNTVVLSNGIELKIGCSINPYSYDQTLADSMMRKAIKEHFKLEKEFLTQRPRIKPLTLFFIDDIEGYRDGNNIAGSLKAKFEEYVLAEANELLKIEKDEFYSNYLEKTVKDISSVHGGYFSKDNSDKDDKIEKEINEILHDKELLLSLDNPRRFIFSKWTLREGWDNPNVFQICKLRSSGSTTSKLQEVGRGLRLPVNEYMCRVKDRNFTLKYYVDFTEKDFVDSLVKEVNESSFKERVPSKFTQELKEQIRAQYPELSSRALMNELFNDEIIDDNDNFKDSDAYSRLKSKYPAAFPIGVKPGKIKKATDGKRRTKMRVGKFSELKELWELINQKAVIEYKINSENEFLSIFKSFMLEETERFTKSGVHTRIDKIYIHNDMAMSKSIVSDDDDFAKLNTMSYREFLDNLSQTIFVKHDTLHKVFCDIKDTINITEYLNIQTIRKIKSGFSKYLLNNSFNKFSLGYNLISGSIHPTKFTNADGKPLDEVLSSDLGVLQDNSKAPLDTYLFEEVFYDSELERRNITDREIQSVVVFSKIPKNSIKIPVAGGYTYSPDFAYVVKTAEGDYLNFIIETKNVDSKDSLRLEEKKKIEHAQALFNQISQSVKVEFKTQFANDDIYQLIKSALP

B1: EcoP15I Mod subunit (commercial enzyme from New England Biolabs) (enzyme, Escherichia coli, UniProt P12364 1-644, looked up)
chain: MKKETIFSEVETANSKQLAVLKANFPQCFDKNGAFIQEKLLEIIRASEVELSKESYSLNWLGKSYARLLANLPPKTLLAEDKTHNQQEENKNSQHLLIKGDNLEVLKHMVNAYAEKVKMIYIDPPYNTGKDGFVYNDDRKFTPEQLSELAGIDLDEAKRILEFTTKGSSSHSAWLTFIYPRLYIARELMREDGTIFISIDHNEFSQLKLVCDEIFGEQNHVGDLVWKNATDNNPSNIAVEHEYIIVYTKNKEQLISEWKSNISDVKNLLVNIGEEFASKYTGNELQEKYTQWFREHRSELWPLDRYKYIDKDGIYTGSQSVHNPGKEGYRYDIIHPKTKKPCKQPLMGYRFPLDTMDRLLSEEKIIFGDDENKIIELKVYAKDYKQKLSSVIHLDGRVATNELKELFPEMTQPFTNAKTIKLVEDLISFACDGEGIVLDFFAGSGTTAHTVFNLNNKNKTSYQFITVQLDEPTKDKSDAMKHGYNTIFDLTKERLIRASKKNRDQGFKVYQLMPDFRAKDESELTLSNHTFFDDVVLTPEQYDTLLTTWCLYDGSLLTTPIEDVDLGGYKAHLCDGRLYLIAPNFTSEALKALLQKVDSDKDFAPNKVVFYGSNFESAKQMELNEALKSYANKKSIELDLVVRN
notes: Mod subunit of the Type III restriction endonuclease EcoP15I, Escherichia coli; also called EcoP15I NEB; commercially available EcoP15I; source: bought: NEB (catalogue no. R0646S)
In the case of B1, the “stoichiometry N” value [1] is reported as 2 Mod per Res.

B2: EcoPI specific 50-mer duplex (sDNA), native MS (dsDNA)
DNA 1: TGGCTTAGACCCAGCGCAGATACCAAAACTGTCCTTCTATTGACAATTCG
DNA 2: CGAATTGTCAATAGAAGGACAGTTTTGGTATCTGCGCTGGGTCTAAGCCA
B2: binds [2].

B3: EcoPI specific 50-mer duplex (sDNA), Hex (dsDNA)
DNA 1: TGGCTTAGACCCAGCGCAGATACCAAAACTGTCCTTCTATTGACAATTCG
DNA 2: CGAATTGTCAATAGAAGGACAGTTTTGGTATCTGCGCTGGGTCTAAGCCA
B3: binds [3].
